target: HLA-A*2401 (purified HLA class I molecule) (human); assay: competition with 125I-labelled probe peptide for purified HLA, gel filtration; conditions: not given

Row | Binder | relative binding ratio (IC50 of standard peptide / IC50 of test peptide)
1 | VYMIMVKCWM [HER2/neu peptide, position 951, 10 amino acids] | 0.022
2 | VYMIMVKCW [HER2/neu peptide, position 951, 9 amino acids] | 0.16
3 | YMIMVKCW [HER2/neu peptide, position 952, 8 amino acids] | 0.0009
4 | TYLPTNASLSF [HER2/neu peptide, position 63, 11 amino acids] | 8.9

Continued, values first:

Row | relative binding ratio (IC50 of standard peptide / IC50 of test peptide) | Binder
5 | -0.0003 | VFETLEEI [HER2/neu peptide, position 399, 8 amino acids]
6 | 1.8 | VYMIMVKCWMI [HER2/neu peptide, position 951, 11 amino acids]
7 | -0.0003 | VFQNLQVI [HER2/neu peptide, position 424, 8 amino acids]
8 | 0.0074 | TYNTDTFESM [HER2/neu peptide, position 273, 10 amino acids]
9 | 0.092 | VWSYGVTVWEL [HER2/neu peptide, position 905, 11 amino acids]
10 | 0.0001 | YVMAGVGSPY [HER2/neu peptide, position 772, 10 amino acids]
11 | 0.08 | VWSYGVTVW [HER2/neu peptide, position 905, 9 amino acids]
12 | -0.0003 | WMALESIL [HER2/neu peptide, position 888, 8 amino acids]
13 | 0.0011 | WMIDSECRPRF [HER2/neu peptide, position 959, 11 amino acids]

same assay, conditions: scale: ratio

Row | Binder | relative binding ratio
14 | VYMIMVKCW [HER2/neu peptide, position 951, 9 amino acids] | 0.16
15 | YMIMVKCW [HER2/neu peptide, position 952, 8 amino acids] | 0.0009

The remaining lines, values ahead:

Row | relative binding ratio | Binder
16 | 1.8 | VYMIMVKCWMI [HER2/neu peptide, position 951, 11 amino acids]
17 | -0.0003 | WMALESIL [HER2/neu peptide, position 888, 8 amino acids]
18 | 0.0011 | WMIDSECRPRF [HER2/neu peptide, position 959, 11 amino acids]

target: HLA-A*2401 (human); assay: inhibition of 125I-labelled standard peptide binding to purified HLA, gel filtration; conditions: not given

Row | Binder | relative binding ratio (IC50 of standard peptide / IC50 of test peptide)
19 | SWLGLRSL [HER2/neu peptide, position 451, 8 amino acids] | -0.0003
20 | RWGLLLAL [HER2/neu peptide, position 8, 8 amino acids] | 0.025
21 | TMRRLLQETEL [HER2/neu peptide, position 686, 11 amino acids] | -0.0003
22 | RFVVIQNEDL [HER2/neu peptide, position 985, 10 amino acids] | 0.0002
23 | TYLPTNASL [HER2/neu peptide, position 63, 9 amino acids] | 0.038
24 | RWGLLLALL [HER2/neu peptide, position 8, 9 amino acids] | 1.3
25 | RFRELVSEF [HER2/neu peptide, position 968, 9 amino acids] | 0.018
26 | RMARDPQRF [HER2/neu peptide, position 978, 9 amino acids] | 0.0032
27 | SYMPIWKF [HER2/neu peptide, position 609, 8 amino acids] | 0.32
28 | SYGVTVWEL [HER2/neu peptide, position 907, 9 amino acids] | 0.12

Results, then the binder that gave them:

Row | relative binding ratio (IC50 of standard peptide / IC50 of test peptide) | Binder
29 | 0.0001 | SMPNPEGRY [HER2/neu peptide, position 281, 9 amino acids]
30 | 0.018 | SMPNPEGRYTF [HER2/neu peptide, position 281, 11 amino acids]
31 | 0.011 | RFTHQSDVW [HER2/neu peptide, position 898, 9 amino acids]
32 | 0.063 | SYGVTVWELM [HER2/neu peptide, position 907, 10 amino acids]
33 | 0.0059 | SYLEDVRL [HER2/neu peptide, position 834, 8 amino acids]
34 | 0.0036 | SWLGLRSLREL [HER2/neu peptide, position 451, 11 amino acids]
35 | 0.0002 | TFGAKPYDGI [HER2/neu peptide, position 917, 10 amino acids]
36 | 0.012 | RYSEDPTVPL [HER2/neu peptide, position 1111, 10 amino acids]

target: HLA-A*2401 (purified HLA class I molecule) (human); assay: competition with 125I-labelled standard peptide for purified HLA, gel filtration; conditions: scale: ratio

Row | Binder | relative binding ratio
37 | EYHADGGKVPI [HER2/neu peptide, position 876, 11 amino acids] | -0.0003
38 | EYVNARHCL [HER2/neu peptide, position 553, 9 amino acids] | 0.0061
39 | GMGAAKGLQSL [HER2/neu peptide, position 1091, 11 amino acids] | -0.0003
40 | EYLVPQQGF [HER2/neu peptide, position 1022, 9 amino acids] | 0.0014
41 | GMGAAKGL [HER2/neu peptide, position 1091, 8 amino acids] | -0.0003

Now from value to binder:

Row | relative binding ratio | Binder
42 | 0.0002 | HFNHSGICEL [HER2/neu peptide, position 257, 10 amino acids]
43 | 0.012 | EYLVPQQGFF [HER2/neu peptide, position 1022, 10 amino acids]
44 | 0.012 | IFGSLAFL [HER2/neu peptide, position 370, 8 amino acids]
45 | 0.0044 | GYLYISAW [HER2/neu peptide, position 408, 8 amino acids]

target: HLA-A*2401 (human); assay: as above; conditions: not given

Row | Binder | relative binding ratio (IC50 of standard peptide / IC50 of test peptide) (ratio to standard peptide)
46 | KWMALESIL [HER2/neu peptide, position 887, 9 amino acids] | 0.015
47 | PYVSRLLGI [HER2/neu peptide, position 780, 9 amino acids] | 0.17
48 | PMCKGSRCW [HER2/neu peptide, position 197, 9 amino acids] | 0.0011
49 | KWMALESI [HER2/neu peptide, position 887, 8 amino acids] | 0.008
50 | LFEDNYAL [HER2/neu peptide, position 107, 8 amino acids] | 0.0006
51 | LMTFGAKPY [HER2/neu peptide, position 915, 9 amino acids] | 0.0001
52 | LMPYGCLL [HER2/neu peptide, position 800, 8 amino acids] | 0.0076
53 | LYISAWPDSL [HER2/neu peptide, position 410, 10 amino acids] | 0.084
54 | KYTMRRLL [HER2/neu peptide, position 684, 8 amino acids] | 0.0024

Other lines, results leading:

Row | relative binding ratio (IC50 of standard peptide / IC50 of test peptide) (ratio to standard peptide) | Binder
55 | 0.0005 | PYDGIPAREI [HER2/neu peptide, position 922, 10 amino acids]
56 | 0.0002 | NWCMQIAKGM [HER2/neu peptide, position 824, 10 amino acids]
57 | 0.0002 | LFRNPHQAL [HER2/neu peptide, position 485, 9 amino acids]
58 | 0.0006 | LFEDNYALAVL [HER2/neu peptide, position 107, 11 amino acids]
59 | 0.0014 | LFRNPHQALL [HER2/neu peptide, position 485, 10 amino acids]

target: HLA-A*2401 (human); assay: inhibition of 125I probe peptide binding to purified HLA; IC50 standard/IC50 test; conditions: not given

Row | Binder | relative binding ratio
60 | VFQNLQVI [HER2/neu 424-431] | -0.0003
61 | VFETLEEI [HER2/neu 399-406] | -0.0003
62 | TMRRLLQETEL [HER2/neu 686-696] | -0.0003
63 | TYLPTNASL [HER2/neu 63-71] | 0.038

The next lines start with the values.

Row | relative binding ratio | Binder
64 | 0.32 | SYMPIWKF [HER2/neu 609-616]
65 | 0.092 | VWSYGVTVWEL [HER2/neu 905-915]
66 | 8.9 | TYLPTNASLSF [HER2/neu 63-73]
67 | 0.08 | VWSYGVTVW [HER2/neu 905-913]
68 | 0.0002 | TFGAKPYDGI [HER2/neu 917-926]

From patent publication US20040018971A1
